B1: RGen-aptamer-9 (structured_RNA)
RNA: UCCAGCACUCCACGCAUAACGAAGGGGGUUUGUUUGUUGGGGGGGGGGGAGGGGGAGUUAUGCGUGCUACCGUGAA
B2: SELEX-derived wild-type aptamer (structured_RNA)
RNA: UCCAGCACUCCACGCAUAACGGCGGUGGGUGGGUUGUUGUGGGAGGGGGAGGGGGAGUUAUGCGUGCUACCGUGAA

Molecular target: IGFBP3 (insulin-like growth factor-binding protein 3) (UniProt P17936 28-291)
Assay: SPR

Chain of IGFBP3 (insulin-like growth factor-binding protein 3) (P17936 28-291): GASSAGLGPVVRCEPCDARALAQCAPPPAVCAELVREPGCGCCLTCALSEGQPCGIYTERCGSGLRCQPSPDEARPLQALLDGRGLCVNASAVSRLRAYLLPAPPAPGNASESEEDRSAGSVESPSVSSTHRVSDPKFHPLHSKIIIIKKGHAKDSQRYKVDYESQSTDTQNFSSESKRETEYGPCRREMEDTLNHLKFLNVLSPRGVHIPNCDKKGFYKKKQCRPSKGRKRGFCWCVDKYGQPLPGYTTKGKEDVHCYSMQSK

Binder	Kd [nM]
B1	6.06
B2	11.6
